Biological target: T1, PN7740, amino acids 27-321 (prey of Example 34) (Saccharomyces cerevisiae; human, UniProt P04386 768-881)
T1 construct: also called novel protein PN7740
T1 sequence: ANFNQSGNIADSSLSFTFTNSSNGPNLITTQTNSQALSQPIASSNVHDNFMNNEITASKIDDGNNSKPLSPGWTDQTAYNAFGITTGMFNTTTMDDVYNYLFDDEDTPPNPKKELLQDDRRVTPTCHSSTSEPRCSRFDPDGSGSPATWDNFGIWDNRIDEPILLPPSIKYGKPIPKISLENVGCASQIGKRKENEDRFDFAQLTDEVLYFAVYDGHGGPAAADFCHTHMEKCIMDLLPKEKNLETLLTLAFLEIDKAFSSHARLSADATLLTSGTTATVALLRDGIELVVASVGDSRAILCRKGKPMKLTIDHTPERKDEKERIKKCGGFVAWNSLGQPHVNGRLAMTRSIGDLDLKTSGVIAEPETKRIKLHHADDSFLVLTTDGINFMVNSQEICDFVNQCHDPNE
Experiment: yeast two-hybrid search
Procedure: The resulting diploid yeast cells expressing proteins interacting with the bait protein were selected for the ability to synthesize tryptophan, leucine, histidine, and adenine. DNA was prepared from each clone, transformed by electroporation into E. coli strain KC8 (Clontech KC8 electrocompetent cells, Catalog No. C2023- 1), and the cells were selected on ampicillin-containing plates in the absence of either tryptophane (selection for the bait plasmid) or leucine (selection for the library plasmid). DNA for both plasmids was prepared and sequenced by the dideoxynucleotide chain termination method. […] Clones that gave a positive signal in the p-galactosidase assay were considered false-positives and discarded. Plasmids for the remaining clones were transformed into yeast cells together with the original bait plasmid. Clones that gave a positive signal in the p-galactosidase assay were considered true positives.

B1: PSD95, amino acids 149-255 (bait of Example 34) (other, UniProt P04386 1-147, looked up)
chain: MKLLSSIEQACDICRLKKLKCSKEKPKCAKCLKNNWECRYSPKTKRSPLTRAHLTEVESRLERLEQLFLLIFPREDLDMILKMDSLQDIKALLTGLFVQDNVNKDAVTDRLASVETDMPLTLRQHRISATSSSEESSNKGQRQLTVSMRRKPPAEKVMEIKLIKGPKGLGFSIAGGVGNQHIPGDNSIYVTKIIEGGAAHKDGRLQIGDKILAVNSVGLEDVMHEDAVAALKNTYDVVYLKVAKPSNAYLSDSY
notes: also called DLG4; SAP-90
- binding result: binds
